Assay results taken from article doi:10.1101/2025.09.30.679617 (bioRxiv, 2025).
Ends that are not written are not given here.

T1: PfCSP junctional peptide 21 (Plasmodium falciparum, strain not …, also: biotinylated, position not given here)
T1 chain: NPDPNANPNVDPNAN

B1: Run6_Seq1 (antibody, V domains shown)
VH: QVQLVQSGAEVRKPGASVKVSCKASGYTFTRYAIHWVRQAPGQRLEWMGWIKAGNGNTRYSQKFQGRVSIIRDTSASTVYMDLSGLRSEDTAVYYCALLTVITPDDAFDIWGQGTMVTVSS
VL: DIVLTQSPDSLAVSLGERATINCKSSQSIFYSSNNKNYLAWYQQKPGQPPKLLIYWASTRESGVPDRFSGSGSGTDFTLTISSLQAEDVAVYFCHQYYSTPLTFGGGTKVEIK
B2: Run6_Seq2 (antibody, V domains shown)
VH: QVQLVQSGAEVRKPGASVKVSCKASGYTFTRYAIHWVRQAPGQRLEWMGWIKAGNGNTRYSQNFQGRVSIIRDTSASTAYMDLSGLRSEDTAVYYCALLTVITPDDAFDIWGQGTMVTVSS
VL: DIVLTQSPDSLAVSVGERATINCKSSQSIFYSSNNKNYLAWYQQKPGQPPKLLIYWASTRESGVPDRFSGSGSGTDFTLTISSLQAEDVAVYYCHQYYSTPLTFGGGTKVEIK
B3: SFR6 (antibody, V domains shown)
VH: QVHLVQSGAEVKKPGASVKVSCKASGYTFSSYAIHWVRQAPGQRLDWMGWIKGGNGDTRYSETFQDRVTISRDTSATTVYMELSSLRSEDTAMYFCALLTVIRRDDTFDIWGQGTMVTVSS
VL: DIVLTQSPDSLAVSLGERATINCKSSQNIFFNSNKKNYLAWYQQKPRQPPKLLFYWASTRESGVPDRFSGSGSGTDFTLTISSLQAEDVAVYYCHQFYSTPLTFGGGTKVEIK
B4: Run3_Seq2 (antibody, V domains shown)
VH: QVQLVQSGAEVRKPGASVKVSCKASGYTFTTYAIHWVRQAPGQRLEWMGWIKGGNGDTRYSQKFQGRLTITRDTFASTAYMELSSLRSEDTAVYYCALLTVVTPDDTFDIWGQGTMVTVSS
VL: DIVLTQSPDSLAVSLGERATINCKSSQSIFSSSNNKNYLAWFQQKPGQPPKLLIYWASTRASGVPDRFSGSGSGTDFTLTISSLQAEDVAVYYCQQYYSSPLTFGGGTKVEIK
B5: SFR1 (antibody, V domains shown)
VH: QVHLVQSGAEVKKPGASVKVSCKASGYTFSRYAIHWVRQAPGQRLEWMGWIKGGNGDTRYSQKFQDRVTITRDTSASTVYMDLSSLRSEDTAVYYCALLTVIRKDDTFDVWGQGTMVTVSS
VL: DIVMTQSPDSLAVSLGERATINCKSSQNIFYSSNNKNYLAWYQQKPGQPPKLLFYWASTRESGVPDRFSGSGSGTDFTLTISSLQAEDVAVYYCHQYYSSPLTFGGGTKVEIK
B6: SFR2 (antibody, V domains shown)
VH: QVHLVQSGAEVKKPGASVKVSCKASGYTFSRYAIHWVRQAPGQRLEWMGWIKGGNGDTRYSQKFQDRVTITRDTSASTVYMELSSLRSEDTAVYFCALLTVIRKDDTFDVWGQGTMVTVSS
VL: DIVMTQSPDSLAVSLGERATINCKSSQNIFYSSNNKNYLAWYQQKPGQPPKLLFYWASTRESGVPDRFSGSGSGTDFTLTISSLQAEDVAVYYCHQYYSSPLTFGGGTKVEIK
B7: SFR4 (antibody, V domains shown)
VH: QVHLVQSGAEVKKPGASVKVSCKASGYTFSTYAIHWVRQAPGQRLEWMGWIKGGNGDTRYSQKFQGRVTITRDTSASTVYMELSSLRSEDTAVYYCALLTVIRLDETFDVWGQGTMVTVSS
VL: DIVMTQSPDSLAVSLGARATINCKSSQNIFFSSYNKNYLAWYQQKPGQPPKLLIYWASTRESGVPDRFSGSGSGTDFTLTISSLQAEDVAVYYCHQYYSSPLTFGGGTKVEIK
B8: Run1_Seq1 (antibody, V domains shown)
VH: QVQLVQSGTEVKKPGASVKVSCKASGYTFTSYAIHWVRQAPGQRLEWMGWIKVGNGNTRYSQKFQGRVTITRDTSASTAYMELSSLRSEDTAVYYCALLTVLTADDAFDFWGQGTMVTVSS
VL: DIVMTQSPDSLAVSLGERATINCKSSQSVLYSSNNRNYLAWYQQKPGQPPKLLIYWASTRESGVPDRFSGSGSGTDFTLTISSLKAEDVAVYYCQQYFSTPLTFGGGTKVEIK
B9: Run2_Seq2 (antibody, V domains shown)
VH: QVQLVQSGAEVKKPGASVKVSCKASGYTFTNYAIHWVRQAPGQRLEWMGWIKAGNGNTRYSQKFQDRVTLTRDTSASTAFMELSSLRSEDTAVYYCALLTVVTPDDAFDIWGQGTLVTVSS
VL: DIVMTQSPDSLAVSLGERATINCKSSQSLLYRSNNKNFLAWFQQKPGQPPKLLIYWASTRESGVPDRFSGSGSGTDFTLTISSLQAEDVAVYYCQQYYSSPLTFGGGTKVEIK
B10: Run4_Seq2 (antibody, V domains shown)
VH: QVQLVQSGTEVKKPGASVKVSCKASGYTFTSYAVHWVRQAPGQRLEWMGWIKAGNGNTRYSQKFQGRVTITRDTSASTVYMELSSLRSEDTAVYYCALLTVITPDDAFDVWGQGTMVTVSS
VL: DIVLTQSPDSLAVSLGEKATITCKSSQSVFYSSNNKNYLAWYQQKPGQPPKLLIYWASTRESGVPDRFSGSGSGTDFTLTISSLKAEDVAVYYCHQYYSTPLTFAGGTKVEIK
B11: Run2_Seq1 (antibody, V domains shown)
VH: QVQLVQSGAEVKKPGASVKVSCKASGYTFTSYAIHWVRQAPGQRLEWMGWIKAGNGNTRYSQKFQGRVTLTRDTSASTAYMELNSLRSEDTAVYYCALLTVVTPDDVFDIWGQGTMVTVSS
VL: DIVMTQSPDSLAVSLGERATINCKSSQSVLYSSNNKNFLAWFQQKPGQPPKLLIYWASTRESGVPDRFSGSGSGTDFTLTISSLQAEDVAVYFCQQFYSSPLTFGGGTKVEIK
B12: Run3_Seq1 (antibody, V domains shown)
VH: QVQLVQSGAEVRKPGASVKVSCKASGYTFTTYAIHWVRQAPGQRLEWMGWIKADNGNTRYSQKFQGRVTITRDTFASTAYMELSSLRSEDTAVYYCALLTVVTPDDTFDIWGQGTMVTVSS
VL: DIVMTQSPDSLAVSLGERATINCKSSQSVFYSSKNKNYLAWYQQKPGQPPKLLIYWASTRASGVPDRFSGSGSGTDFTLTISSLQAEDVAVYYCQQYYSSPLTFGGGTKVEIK
B13: Run7_Seq2 (antibody, V domains shown)
VH: QVQLVQSGAEVKKPGASVKVSCKASGYTFTSYAMHWVRQAPGQRLEWLGWIKAGNGNTRYSQRFQGRVTITGDTSASTAYMELRSLRSEDTAVYYCALLTVITPDDAFDIWGQGTMVTVSS
VL: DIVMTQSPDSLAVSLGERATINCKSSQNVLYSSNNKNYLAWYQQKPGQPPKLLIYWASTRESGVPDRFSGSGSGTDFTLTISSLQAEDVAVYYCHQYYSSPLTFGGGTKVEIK
B14: Run1_Seq2 (antibody, V domains shown)
VH: QVQLVQSGTEVKKPGASVKVSCKASGYTFTSYAIHWVRQAPGQRLEWMGWIKVGNGNTRYSQKFQGRVTITRDTSANTAYMELSSLRSEDTAVYYCALLTVLTPDDAFDFWGQGTMVTVSS
VL: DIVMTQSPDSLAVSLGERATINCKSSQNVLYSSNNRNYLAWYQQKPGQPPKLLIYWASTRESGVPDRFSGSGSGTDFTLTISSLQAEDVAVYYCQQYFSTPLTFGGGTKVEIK
B15: Run5_Seq1 (antibody, V domains shown)
VH: QVQLVQSGAEVKKPGASVKVSCKASGYTFTSYAIHWVRQAPGQRLEWMGWIKAGKGNTRYSQKFQGRITITRDTSASTVYMELNSLRSEDTAVYYCALLTVITPDYAFDIWGQGTMVTVSS
VL: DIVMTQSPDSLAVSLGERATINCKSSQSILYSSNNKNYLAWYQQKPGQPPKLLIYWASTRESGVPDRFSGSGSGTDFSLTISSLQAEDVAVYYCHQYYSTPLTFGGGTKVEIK
B16: Run5_Seq2 (antibody, V domains shown)
VH: QVQLVQSGAEVKKPGASVKVSCKASGYTFTSYAIHWVRQAPGQRLEWMGWIKAGNGNTRYSQKFQGRITITRDTSASTAYMELSSLRSEDTAVYYCALLTVITPDYAFDIWGQGTMVTVSS
VL: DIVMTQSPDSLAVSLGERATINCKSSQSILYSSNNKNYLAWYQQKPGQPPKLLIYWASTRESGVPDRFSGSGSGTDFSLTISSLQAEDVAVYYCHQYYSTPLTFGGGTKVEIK
B17: Run4_Seq1 (antibody, V domains shown)
VH: QVQLVQSGTEVKKPGASVKVSCKASGYTFTSYAIHWVRQAPGQRLEWMGWIKAGNGNTRYSQKFQGRVTITRDTSASTVYMELSSLRSEDTAVYYCALLTVITPDDAFDVWGQGTMVTVSS
VL: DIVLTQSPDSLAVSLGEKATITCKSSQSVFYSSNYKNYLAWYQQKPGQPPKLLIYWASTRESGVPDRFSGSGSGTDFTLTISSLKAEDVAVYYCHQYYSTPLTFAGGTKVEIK
B18: Run7_Seq1 (antibody, V domains shown)
VH: QVQLVQSGAEVKKPGASVKVSCKASGYTFTKYAMHWVRQAPGQRLEWLGWIKAGNGNTRYSQRFQDRVTITRDTSASTAYMELSSLRSEDTAVYYCALLTVITPDDAFDIWGQGTMVTVSS
VL: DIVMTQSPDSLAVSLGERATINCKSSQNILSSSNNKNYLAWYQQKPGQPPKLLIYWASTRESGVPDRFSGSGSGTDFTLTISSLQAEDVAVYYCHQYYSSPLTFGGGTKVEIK

Target: T1, PfCSP junctional peptide 21
B1: binds. B2: binds. B3: binds. B4: binds. B5: binds. B6: binds. B7: binds. B8: binds. B9: binds. B10: binds. B11: binds. B12: binds. B13: binds. B14: binds. B15: binds. B16: binds. B17: binds. B18: binds.
